These results are taken from patent US6703362 (CYTOGEN, dated 2004).

Test [1] addresses T1, HPT1 receptor domain (human intestinal peptide-associated transporter HPT1, amino acid residues 29-273), … (human, UniProt Q12864 29-273).
T1 construct: purified under denaturing conditions; also called recombinant HPT1; not shown: poly-histidine tag (pET vector) at the NH2-terminal end
T1 sequence: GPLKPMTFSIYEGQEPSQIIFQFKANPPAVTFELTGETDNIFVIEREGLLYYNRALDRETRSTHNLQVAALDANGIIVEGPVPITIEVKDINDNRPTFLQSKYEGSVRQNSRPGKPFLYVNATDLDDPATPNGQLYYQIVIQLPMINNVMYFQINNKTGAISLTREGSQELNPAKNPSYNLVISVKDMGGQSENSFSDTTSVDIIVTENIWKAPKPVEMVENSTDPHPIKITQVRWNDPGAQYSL
Nature of the test: phage ELISA, OD on HPT1 over OD on BSA. On the procedure: (§1) 6.6. Receptor ELISA Procedure 96 well plates were coated overnight with GIT receptor, BSA and, optionally, IDE (insulin degrading enzyme, an irrelevant His-fusion protein)or hTF. The plates were blocked for one hour with 0.5% BSA-PBS. After clarification, the amplified phage were diluted 1:100 in […] plus 0.05% Tween 20 in PBS and added to the plates. Following incubation of the plates on a rotator for 1 to 2 hours, the plates were washed 5 times with 1% BSA plus 0.05% Tween 20 in PBS. […] After the plates were washed 5 times, as described above, TMB substrate was added to the wells. The plates were read at 650 nm absorbance.

Test [2] has as its target T1, HPT1 receptor domain (human intestinal …). Nature of the test: phage ELISA, plate coated with HPT1 domain. On the procedure: as §1
Test [3] has as its target T2, hPEPT1 receptor domain (human PEPT1, amino acid residues 391-571), His-tag fusion protein (human, UniProt P46059 391-571).
T2 construct: purified under denaturing conditions; also called recombinant hPEPT1; not shown: poly-histidine tag (pET vector) at the NH2-terminal end
T2 sequence: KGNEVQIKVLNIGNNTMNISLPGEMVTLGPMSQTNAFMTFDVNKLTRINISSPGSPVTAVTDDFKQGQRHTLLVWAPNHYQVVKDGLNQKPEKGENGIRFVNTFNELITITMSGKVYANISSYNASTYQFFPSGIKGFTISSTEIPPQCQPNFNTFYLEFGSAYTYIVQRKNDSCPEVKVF
Nature of the test: phage ELISA, OD on hPEPT1 over OD on BSA. On the procedure: as §1

For test [4], the target named is T2, hPEPT1 receptor domain (human PEPT1, …). The test can be described thus: phage ELISA, plate coated with hPEPT1 domain.

B1: HAX42 (peptide)
peptide: SDHALGTNLRSDNAKEPGDYNCCGNGNSTGRKVFNRRRPSAIPTAETVESCLAKPHTENSFTNVWKDDKTLDRYANYEGCLWNATGVVVCTGDETQCYGTWVPIGLAIPENEGGGSEGGGSEGGGSEGGGTKPPEYGDTPIPGYTYINPLDGTYPPGTEQNPANPNPSLEESQPLNTFMFQNNRFRNRQGALTVYTGTVTQGTDPVKTYYQYTPVSSKAMYDAYWNGKFRDCAFHSGFNEDPFVCEYQGQSSDLPQPPVNAGGGSGGGSGGGSEGGGSEGGGSEGGGSEGGGSGGGSGSGDFDYEKMANANKGAMTENADENALQSDAKGKLDSVATDYGAAIDGFIGDVSGLANGNGATGDFAGSNSQMAQVGDGDNSPLMNNFRQYLPSLPQSVECRPFVFSAGKPYEFSIDCDKINLFRGVFAFLLYVATFMYVFSTFANILRNKES
notes: Assayed as M13 phage clone displaying the insert
In test [1], B1 came in with an HPT/BSA of 5 ratio. In test [2], this molecule registered an OD of 0.32 OD.

B2: 5PAX5 (peptide)
peptide: RGSTGTAGGERSGVLNLHTRDNASGSGFKPWYPSNRGHKAETVESCLAKPHTENSFTNVWKDDKTLDRYANYEGCLWNATGVVVCTGDETQCYGTWVPIGLAIPENEGGGSEGGGSEGGGSEGGGTKPPEYGDTPIPGYTYINPLDGTYPPGTEQNPANPNPSLEESQPLNTFMFQNNRFRNRQGALTVYTGTVTQGTDPVKTYYQYTPVSSKAMYDAYWNGKFRDCAFHSGFNEDPFVCEYQGQSSDLPQPPVNAGGGSGGGSGGGSEGGGSEGGGSEGGGSEGGGSGGGSGSGDFDYEKMANANKGAMTENADENALQSDAKGKLDSVATDYGAAIDGFIGDVSGLANGNGATGDFAGSNSQMAQVGDGDNSPLMNNFRQYLPSLPQSVECRPFVFSAGKPYEFSIDCDKINLFRGVFAFLLYVATFMYVFSTFANILRNKES
notes: as for B1
In the case of B2, the PEPT1/BSA in test [3] stood at 4 ratio. For the same molecule, the OD in test [4] was 0.15 OD.

B3: HAX9 (peptide)
peptide: SREEANWDGYKREMSHRSRFWDATHLSRPRRPANSGDPNAETVESCLAKPHTENSFTNVWKDDKTLDRYANYEGCLWNATGVVVCTGDETQCYGTWVPIGLAIPENEGGGSEGGGSEGGGSEGGGTKPPEYGDTPIPGYTYINPLDGTYPPGTEQNPANPNPSLEESQPLNTFMFQNNRFRNRQGALTVYTGTVTQGTDPVKTYYQYTPVSSKAMYDAYWNGKFRDCAFHSGFNEDPFVCEYQGQSSDLPQPPVNAGGGSGGGSGGGSEGGGSEGGGSEGGGSEGGGSGGGSGSGDFDYEKMANANKGAMTENADENALQSDAKGKLDSVATDYGAAIDGFIGDVSGLANGNGATGDFAGSNSQMAQVGDGDNSPLMNNFRQYLPSLPQSVECRPFVFSAGKPYEFSIDCDKINLFRGVFAFLLYVATFMYVFSTFANILRNKES
notes: as for B1
Regarding B3, in test [1], the HPT/BSA is 5 ratio. In addition, the OD in test [2] came out at 0.382 OD.

B4: HAX40 (peptide)
peptide: REFAERRLWGCDDLSWRLDAEGCGPTPSNRAVKHRKPRPRSPALAETVESCLAKPHTENSFTNVWKDDKTLDRYANYEGCLWNATGVVVCTGDETQCYGTWVPIGLAIPENEGGGSEGGGSEGGGSEGGGTKPPEYGDTPIPGYTYINPLDGTYPPGTEQNPANPNPSLEESQPLNTFMFQNNRFRNRQGALTVYTGTVTQGTDPVKTYYQYTPVSSKAMYDAYWNGKFRDCAFHSGFNEDPFVCEYQGQSSDLPQPPVNAGGGSGGGSGGGSEGGGSEGGGSEGGGSEGGGSGGGSGSGDFDYEKMANANKGAMTENADENALQSDAKGKLDSVATDYGAAIDGFIGDVSGLANGNGATGDFAGSNSQMAQVGDGDNSPLMNNFRQYLPSLPQSVECRPFVFSAGKPYEFSIDCDKINLFRGVFAFLLYVATFMYVFSTFANILRNKES
notes: Assayed as M13 phage clone displaying the insert; also called H44
For B4, the HPT/BSA in test [1] amounted to 15 ratio. Besides, the OD in test [2] was found to be 0.991 OD.
